Starred links: 1 amine or outer side, 2 acyl side, 3 side chain; linkers in the order of their positions; H or OH if unused. Non-standard residues stand in square brackets, D forms with d. Groups on a side chain read outwards from the residue. No end group written: not given here. *: point of attachment. C18 diacid = O=C(O)CCCCCCCCCCCCCCCCC(=O)*; γGlu = O=C(O)[C@H](CCC(=O)[*:2])N[*:1]; αMeL = CC(C)C[C@](C)(N)C(=O)O; Dap = NC[C@H](N)C(=O)O; AEEA = NCCOCCOCC(=O)O; Aib = CC(C)(N)C(=O)O
B1: Example 126 (peptide)
chain: YXQGTFTSDFSXXLDKKAQXAFIEWLLEGGHSSGAPPPEGS
modifications: synthetic construct; SITE 2: note = 2-Aminoisobutyric Acid; SITE 12: note = L-ornithine; SITE 13: note = alpha-methyl-leucine; SITE 17: note = Lysine is chemically modified through conjugation of the epsilon-amino group of the Lysine side chain with (2-[2-(2-Amino-ethoxy)-ethoxy]-acetyl)-(gamma-Glu)
B2: Example 129 (peptide)
chain: YXQGTFTSDFSXXLDKKAQXAFIEYLLEAGPSSGAPPPSGE
modifications: synthetic construct; SITE 2: note = 2-Aminoisobutyric Acid; SITE 12: note = L-ornithine; SITE 13: note = alpha-methyl-leucine; SITE 17: note = Lysine is chemically modified through conjugation of the epsilon-amino group of the Lysine side chain with (2-[2-(2-Amino-ethoxy)-ethoxy]-acetyl)-(gamma-Glu)
B3: Example 132 (peptide)
chain: YXQGTFTSDXSRXLDKKAQXAFIEYLLEXGESSGAPPPSGS
modifications: synthetic construct; SITE 2: note = 2-Aminoisobutyric Acid; SITE 10: note = 3-(4-Pyridyl)-L-alanine; SITE 13: note = alpha-methyl-leucine; SITE 17: note = Lysine is chemically modified through conjugation of the epsilon-amino group of the Lysine side chain with (2-[2-(2-Amino-ethoxy)-ethoxy]-acetyl)
B4: Example 136 (peptide)
chain: YXQGTFTSDFSXXLDKKAQXAFIEWLLEGGPSSGAXPPSGE
modifications: synthetic construct; SITE 2: note = 2-Aminoisobutyric Acid; SITE 12: note = L-ornithine; SITE 13: note = alpha-methyl-leucine; SITE 17: note = Lysine is chemically modified through conjugation of the epsilon-amino group of the Lysine side chain with (2-[2-(2-Amino-ethoxy)-ethoxy]-acetyl)-(gamma-Glu)
B5: Example 137 (peptide)
chain: YXQGTFTSDFSXXLDKKAQXAFIEWLLEGGPSSGAPXPSGE
modifications: synthetic construct; SITE 2: note = 2-Aminoisobutyric Acid; SITE 12: note = L-ornithine; SITE 13: note = alpha-methyl-leucine; SITE 17: note = Lysine is chemically modified through conjugation of the epsilon-amino group of the Lysine side chain with (2-[2-(2-Amino-ethoxy)-ethoxy]-acetyl)-(gamma-Glu)
B6: Example 141 (peptide)
chain: YXQGTFTSDFSKXLDKKAQXAFIEYLLEGGPSSGAPPPSGS
modifications: synthetic construct; SITE 2: note = 2-Aminoisobutyric Acid; SITE 13: note = alpha-methyl-leucine; SITE 17: note = Lysine is chemically modified through conjugation of the epsilon-amino group of the Lysine side chain with (2-[2-(2-Amino-ethoxy)-ethoxy]-acetyl)-(gamma-Glu)-CO-(CH2) 16-CO2H; SITE 20: n
B7: Example 143 (peptide)
chain: YXQGTFTSDFSRXLDKKAQXAFIEYLLEGGPSSGAPPPSGS
modifications: synthetic construct; SITE 2: note = 2-Aminoisobutyric Acid; SITE 13: note = alpha-methyl-leucine; SITE 17: note = Lysine is chemically modified through conjugation of the epsilon-amino group of the Lysine side chain with (2-[2-(2-Amino-ethoxy)-ethoxy]-acetyl)-(gamma-Glu)-CO-(CH2) 16-CO2H; SITE 20: n
B8: Example 148 (peptide)
chain: YXQGTFTSDFSRXLDKKAQXAFIEYLLEGGESSGAPPPSGS
modifications: Aib, αMeL; lysine acylated C18 diacid; C-terminal amide; synthetic construct; SITE 2: note = 2-Aminoisobutyric Acid; SITE 13: note = alpha-methyl-leucine; SITE 17: note = Lysine is chemically modified through conjugation of the epsilon-amino group of the Lysine side chain with (2-[2-(2-Amino-ethoxy)-ethoxy]-acetyl)-(gamma-Glu)-CO-(CH2) 16-CO2H; SITE 20: n
B9: Example 151 (peptide)
chain: YXQGTFTSDFSQXLDKKAQXAFIEYLLEXGPSSGAPPPSGS
modifications: Lys acylated with AEEA-γGlu-C18 diacid; non-natural residues; C-amide; synthetic construct; SITE 2: note = 2-Aminoisobutyric Acid; SITE 13: note = alpha-methyl-leucine; SITE 17: note = Lysine is chemically modified through conjugation of the epsilon-amino group of the Lysine side chain with (2-[2-(2-Amino-ethoxy)-ethoxy]-acetyl)-(gamma-Glu)-CO-(CH2) 16-CO2H; SITE 20: n
B10: Example 154 (peptide)
chain: YXQGTFTSDXSXXLDKKAQXAFIEYLLAGGPSSGEPPPSGS
modifications: Aib, 4Pal, Orn, αMeL; lipidated Lys; C-terminal amide; synthetic construct; SITE 2: note = 2-Aminoisobutyric Acid; SITE 10: note = 3-(4-Pyridyl)-L-alanine; SITE 12: note = L-ornithine; SITE 13: note = alpha-methyl-leucine; SITE 17: note = Lysine is chemically modified through conjugation of the epsilon-amino group of the Lysine side chain with (2-[2-(2-
B11: Example 155 (peptide)
chain: YXQGTFTSDFSXXLDKKAQXAFIEYLLEAGPSSGEPPPSGS
modifications: non-natural residues; lysine acylated with AEEA linker C18 diacid; C-amide; synthetic construct; SITE 2: note = 2-Aminoisobutyric Acid; SITE 12: note = L-ornithine; SITE 13: note = alpha-methyl-leucine; SITE 17: note = Lysine is chemically modified through conjugation of the epsilon-amino group of the Lysine side chain with (2-[2-(2-Amino-ethoxy)-ethoxy]-acetyl)2-(gamma-Glu)
B12: Example 157 (peptide)
chain: YXQGTFTSDFSXXLDKKAQXAFIEYLLEAGPSSGEPPPSGQ
modifications: Aib, Orn, alpha-methyl-Leu, D-Ala, lipidated Lys, amide; synthetic construct; SITE 2: note = 2-Aminoisobutyric Acid; SITE 12: note = L-ornithine; SITE 13: note = alpha-methyl-leucine; SITE 17: note = Lysine is chemically modified through conjugation of the epsilon-amino group of the Lysine side chain with (2-[2-(2-Amino-ethoxy)-ethoxy]-acetyl)2-(gamma-Glu)
B13: Example 158 (peptide)
chain: YXQGTFTSDFSXXLDKKAQXAFIEYLLEGGPSSGAPPPGGT
modifications: Lys acylated AEEA-γGlu-C18 diacid; non-natural residues; C-terminal amide; synthetic construct; SITE 2: note = 2-Aminoisobutyric Acid; SITE 12: note = L-ornithine; SITE 13: note = …; SITE 17: note = Lysine is chemically modified through conjugation of the epsilon-amino group of the Lysine side chain with (2-[2-(2-Amino-ethoxy)-ethoxy]-acetyl)-(gamma-Glu)
B14: Example 162 (peptide)
chain: YXQGTFTSDFSXXLDKKAQXAFIEYLLEGGHSSGAPPPGGS
modifications: Aib, Orn, αMeL; acylated Lys; C-terminal amide; synthetic construct; SITE 2: note = 2-Aminoisobutyric Acid; SITE 12: note = L-ornithine; SITE 13: note = alpha-methyl-leucine; SITE 17: note = Lysine is chemically modified through conjugation of the epsilon-amino group of the Lysine side chain with (2-[2-(2-Amino-ethoxy)-ethoxy]-acetyl)-(gamma-Glu)
B15: Example 163 (peptide)
chain: YXQGTFTSDFSXXLDKKAQXAFIEYLLEGGXSSGAPPPGGS
modifications: non-natural residues; lysine acylated with AEEA linker C18 diacid; C-amide; synthetic construct; SITE 2: note = 2-Aminoisobutyric Acid; SITE 12: note = L-ornithine; SITE 13: note = alpha-methyl-leucine; SITE 17: note = Lysine is chemically modified through conjugation of the epsilon-amino group of the Lysine side chain with (2-[2-(2-Amino-ethoxy)-ethoxy]-acetyl)-(gamma-Glu)

Legend:
Assay in all cases: cell-based or functional assay
[1] = molecular target: hGLP-1R (Homo sapiens, UniProt P43220)
Sequence of hGLP-1R (P43220 24-463): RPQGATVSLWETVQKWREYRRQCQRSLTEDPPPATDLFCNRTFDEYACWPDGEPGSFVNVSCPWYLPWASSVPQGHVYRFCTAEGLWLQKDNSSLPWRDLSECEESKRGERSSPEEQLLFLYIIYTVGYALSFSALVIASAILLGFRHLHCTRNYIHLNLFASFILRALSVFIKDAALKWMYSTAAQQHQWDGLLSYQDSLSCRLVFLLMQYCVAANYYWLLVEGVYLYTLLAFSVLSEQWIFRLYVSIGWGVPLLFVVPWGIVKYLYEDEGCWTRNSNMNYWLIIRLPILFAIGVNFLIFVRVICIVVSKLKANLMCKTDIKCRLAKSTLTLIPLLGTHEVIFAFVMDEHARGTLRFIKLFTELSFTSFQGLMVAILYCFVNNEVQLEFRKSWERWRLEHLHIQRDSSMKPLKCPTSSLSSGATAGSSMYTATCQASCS

[2] = molecular target: T1, human GIP receptor (human) (UniProt P48546)
T1 sequence (looked up): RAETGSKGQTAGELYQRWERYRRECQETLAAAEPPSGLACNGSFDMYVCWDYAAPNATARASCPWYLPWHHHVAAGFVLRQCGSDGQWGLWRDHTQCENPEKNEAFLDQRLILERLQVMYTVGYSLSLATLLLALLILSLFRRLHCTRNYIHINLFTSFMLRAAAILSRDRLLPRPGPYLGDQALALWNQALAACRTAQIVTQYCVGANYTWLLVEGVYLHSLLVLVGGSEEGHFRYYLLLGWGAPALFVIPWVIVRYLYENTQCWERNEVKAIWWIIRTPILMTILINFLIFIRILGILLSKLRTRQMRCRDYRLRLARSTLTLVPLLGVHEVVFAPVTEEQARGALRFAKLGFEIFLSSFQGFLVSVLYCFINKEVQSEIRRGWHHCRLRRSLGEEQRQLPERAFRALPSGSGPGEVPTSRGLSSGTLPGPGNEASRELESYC

[3] = molecular target: human GLP-1R (SNAP-GLP-1R expressed in HEK293 cells) (human) (UniProt P43220)
Sequence of human GLP-1R (SNAP-GLP-1R expressed in HEK293 cells) (human) (P43220 24-463): as the sequence (P43220 24-463) above

[4] = molecular target: human glucagon receptor (human) (UniProt P47871)
Sequence of human glucagon receptor (human) (P47871 26-477): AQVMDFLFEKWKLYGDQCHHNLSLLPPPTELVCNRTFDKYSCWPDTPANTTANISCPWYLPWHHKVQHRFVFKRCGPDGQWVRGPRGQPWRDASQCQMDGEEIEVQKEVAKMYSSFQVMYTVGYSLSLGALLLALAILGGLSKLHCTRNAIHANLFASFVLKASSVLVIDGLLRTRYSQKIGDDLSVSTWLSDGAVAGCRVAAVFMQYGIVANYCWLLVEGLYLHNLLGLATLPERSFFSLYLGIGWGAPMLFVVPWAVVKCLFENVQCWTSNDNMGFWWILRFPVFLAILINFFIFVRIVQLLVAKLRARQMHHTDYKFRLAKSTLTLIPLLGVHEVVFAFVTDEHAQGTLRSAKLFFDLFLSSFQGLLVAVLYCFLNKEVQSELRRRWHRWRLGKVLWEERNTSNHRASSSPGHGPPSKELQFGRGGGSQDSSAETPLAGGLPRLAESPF

Binder	Relative cAMP EC50 [1] [nM]	cAMP Rel EC50, nM (in the presence of 1% HSA) [1] [nM]	Relative cAMP EC50 [2] [nM]	cAMP Rel EC50, nM (in the presence of 1% HSA) [2] [nM]	GLP1R Internalization EC50 [3] [nM]	Internalization % TOP [3] [%]	Relative cAMP EC50 [4] [nM]	cAMP Rel EC50, nM (in the presence of 1% HSA) [4] [nM]	Relative cAMP EC50, nM (0.1% casein) [1] [nM]	cAMP Rel EC50, nM (1% HSA) [1] [nM]	Relative cAMP EC50, nM (0.1% casein) [2] [nM]	cAMP Rel EC50, nM (1% HSA) [2] [nM]	Relative cAMP EC50, nM (0.1% casein) [4] [nM]	cAMP Rel EC50, nM (1% HSA) [4] [nM]
B1	3.97	838	0.264	40.3	63.2	38.8	6.81	1120						
B2	1.87	284	0.134	24.3	22.5	40.6	2.01	510						
B3	5.72	823	0.21	25.9	72.7	67.2	2.63	632						
Y[Aib]QGTFTSDFS[Dap][αMeL]LDKK([AEEA-γGlu-C18 diacid])AQ[Aib]AFIEYLLE[Aib]GPSSGAPPPSGS-NH2 (ends and bridges not checked) [Example 134]	3.36	549	0.152	38.3	67.9	22.3	7.28	1200						
B4	3.8	625	0.221	32.9	36.1	37.8	8.73	960						
B5	3.18	447	0.269	23.7	60.2	47.7	4.43	905						
B6	1.96	562	0.21	62.1	95.3	64.1	1.77	877						
B7	2.44	594	0.211	63.9	337	43	4.51	1690						
B8					95.5	37.4			2.82	870	0.352	74.2	3.92	1330
B9					77.8	55			1.6	384	0.0784	14.9	3.5	1420
B10					47.7	65.9			4.94	569	0.227	29.7	8.72	1040
B11					85.1	54.5			2.98	503	0.177	18.9	5.68	1310
B12					60.3	53.3			3.04	496	0.183	22.2	4.16	838
B13					104	52.4			2.49	184	0.245	24.7	3.72	325
B14					48.8	44.8			4.72	786	0.222	37.5	4.72	558
B15					143	37.8			6.5	762	0.376	52	5.6	790

From patent US20240270821A1, “GIP/GLP1/GCG TRI-RECEPTOR AGONISTS AND USES THEREOF” (priority 2023, published 2024)
